In publication PMC12022973, “Proteomimetic Strategy for the Modulation of Intrinsically Disordered Protein MYC” (Journal of the American Chemical Society, 2025):
Positions of bridges follow the written chain, without caps; N, C: chain ends. Chains are numbered I, II in the order given. No end group written: not given here.

Biological target: T1, recombinant human MYC^353–437 protein (human)
T1 construct: MYC, human, residues 353-437; Aggregates above 5 μM; also called His6-MYC^353–437; source: recombinant
Experiment: fluorescence polarisation; fluorescein-labeled CHDs with His6-MYC^353–437, His6-MAX or the MYC/MAX complex; MYC up to 5 μM (aggregation above)
Conditions: both partners purified

Row | Binder | Kd
1 | fluorescein-labeled CHD^Max-1 (cross-linked helix dimer derived from MAX) (designed binder, bridge I:11-II:16; not fully specified (bridges); also: fluorescein label, chain and position not given here) chain 1: LREKIATLQWCIEELRK chain 2: LRRKNETHQWEIEELC | 350 ± 17 nM
2 | fluorescein-labeled CHD^Max-2 (designed binder, bridge I:11-II:16; not fully specified (bridges); also: fluorescein label, chain and position not given here) chain 1: LREKIATLQWCIEELRK chain 2: LEARIETHQWRIRELCE | 880 ± 53 nM
3 | fluorescein-labeled CHD^Max-3 (negative control) (designed binder, bridge I:11-II:16; not fully specified (bridges); also: fluorescein label, chain and position not given here) chain 1: LREKAATLQWCIEELRK chain 2: LRRKAETAQWEIEELC | > 5000 nM
